Experimental data from publication PMC4992955, “Pichia pastoris Fep1 is a [2Fe-2S] protein with a Zn finger that displays an unusual oxygen-dependent role in cluster binding”.

T1: MBP-Fep1 (41-192) WT (Pichia pastoris (GS115), UniProt A4VAR6 41-192)
T1 sequence: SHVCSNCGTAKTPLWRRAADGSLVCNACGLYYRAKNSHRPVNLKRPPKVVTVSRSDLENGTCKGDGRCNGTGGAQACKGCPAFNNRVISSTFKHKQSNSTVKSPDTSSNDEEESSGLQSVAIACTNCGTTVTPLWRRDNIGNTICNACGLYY


Columns and labels:
[1] = target: Flag-Fep1 (1–208) WT (Pichia pastoris); experiment: SEC; analytical gel-filtration on Superdex-75 (10/300) in 25 mM MOPS pH 7, 150 mM NaCl; calibrated with conalbumin, ovalbumin, carbonic anhydrase and RNase A
[2] = target: Flag-Fep1 (1–208) WT (Pichia pastoris); experiment: SAXS; solution SAXS at ESRF beamline BM29, 293 K, three dilutions of each sample; as-purified and after reconstitution of the [2Fe-2S] cluster; molecular weights from ab initio calculation with ATSAS
MBP-Fep1 (41-192) WT = target: T1, MBP-Fep1 (41-192) WT; experiment: EMSA; 5 uM ZnSO4, 5 uM FeCl3; 12.5 mM Hepes pH 7.9, 75 mM NaCl, 4 mM MgCl2, 1 mM EDTA, 10% glycerol, 4 mM Tris-HCl pH 7.9, 0.6 mM DTT, 1 ug poly(dI-dC)2, 5 uM ZnSO4, 5 uM FeCl3; 100-250 ng protein, 1 ng probe, 20 min at 25 C; 6% native gel at 4 C; conditions: protein: recombinant; tags: MBP fusion; label: 32P end-label (alpha-32P); 5' overhangs: 4 nt on S3, 3 nt on S4 as printed; 32 bp duplex

stoichiometry N [1]	stoichiometry N [2]	Molecule	binding result (MBP-Fep1 (41-192) WT)
2	2	Flag-Fep1 (1–208) WT (domain or fragment)	–
–	–	fetgata2/fetgata1 (FET3 promoter GATA probe) (dsDNA) DNA 1: GGCGATTGAACTGATAATTTTACTAAATAAGTGGAA DNA 2: GGATTCCACTTATTTAGTAAAATTATCAGTTCAAT	binds
